Source: patent publication US20260061032A1 (GI INNOVATION, published 2026)

T1: hCD73 (human, UniProt P21589 27-549, limits assumed)
T1 construct: also called human CD73; recombinant human CD73 protein
T1 sequence: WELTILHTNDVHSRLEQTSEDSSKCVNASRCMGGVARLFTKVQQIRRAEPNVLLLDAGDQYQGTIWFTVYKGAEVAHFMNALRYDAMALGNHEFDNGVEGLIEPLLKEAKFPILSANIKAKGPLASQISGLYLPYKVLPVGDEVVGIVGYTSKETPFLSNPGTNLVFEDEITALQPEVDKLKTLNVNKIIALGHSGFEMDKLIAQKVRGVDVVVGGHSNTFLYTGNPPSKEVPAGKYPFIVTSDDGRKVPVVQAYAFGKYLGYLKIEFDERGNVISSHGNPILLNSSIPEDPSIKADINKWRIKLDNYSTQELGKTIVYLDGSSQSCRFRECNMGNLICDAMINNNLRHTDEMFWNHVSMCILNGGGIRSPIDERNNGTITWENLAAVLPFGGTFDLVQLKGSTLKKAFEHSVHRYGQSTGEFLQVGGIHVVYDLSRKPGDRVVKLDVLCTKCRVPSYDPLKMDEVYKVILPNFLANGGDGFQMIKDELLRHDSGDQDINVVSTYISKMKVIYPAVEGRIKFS

T2: mCD73 (UniProt Q61503 29-551, limits assumed)
T2 construct: Species told only by the prefix 'm'
T2 sequence (looked up): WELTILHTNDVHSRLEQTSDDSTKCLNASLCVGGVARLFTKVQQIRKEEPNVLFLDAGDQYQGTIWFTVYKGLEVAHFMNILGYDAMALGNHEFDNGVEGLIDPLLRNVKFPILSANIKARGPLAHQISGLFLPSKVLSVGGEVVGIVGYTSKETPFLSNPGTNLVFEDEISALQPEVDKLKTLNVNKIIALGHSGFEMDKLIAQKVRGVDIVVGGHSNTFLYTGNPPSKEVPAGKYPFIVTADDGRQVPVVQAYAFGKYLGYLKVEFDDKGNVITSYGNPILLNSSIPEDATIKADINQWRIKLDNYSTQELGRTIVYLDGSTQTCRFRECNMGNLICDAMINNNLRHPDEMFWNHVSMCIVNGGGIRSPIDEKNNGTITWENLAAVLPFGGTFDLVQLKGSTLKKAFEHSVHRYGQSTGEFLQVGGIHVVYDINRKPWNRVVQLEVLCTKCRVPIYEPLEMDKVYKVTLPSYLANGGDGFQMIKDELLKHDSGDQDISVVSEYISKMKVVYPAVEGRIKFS

T3: hIL-2Rαβγ on CTLL-2 cells (human, UniProt P01589 22-272; P14784 27-551; P31785 23-369)
T3 sequence (looked up) 1: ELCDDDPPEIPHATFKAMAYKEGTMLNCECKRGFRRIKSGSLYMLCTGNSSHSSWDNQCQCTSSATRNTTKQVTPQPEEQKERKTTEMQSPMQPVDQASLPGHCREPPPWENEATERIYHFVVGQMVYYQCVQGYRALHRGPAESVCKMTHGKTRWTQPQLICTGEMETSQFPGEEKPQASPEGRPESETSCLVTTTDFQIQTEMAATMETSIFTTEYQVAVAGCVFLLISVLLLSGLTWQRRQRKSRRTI
T3 sequence (looked up) 2: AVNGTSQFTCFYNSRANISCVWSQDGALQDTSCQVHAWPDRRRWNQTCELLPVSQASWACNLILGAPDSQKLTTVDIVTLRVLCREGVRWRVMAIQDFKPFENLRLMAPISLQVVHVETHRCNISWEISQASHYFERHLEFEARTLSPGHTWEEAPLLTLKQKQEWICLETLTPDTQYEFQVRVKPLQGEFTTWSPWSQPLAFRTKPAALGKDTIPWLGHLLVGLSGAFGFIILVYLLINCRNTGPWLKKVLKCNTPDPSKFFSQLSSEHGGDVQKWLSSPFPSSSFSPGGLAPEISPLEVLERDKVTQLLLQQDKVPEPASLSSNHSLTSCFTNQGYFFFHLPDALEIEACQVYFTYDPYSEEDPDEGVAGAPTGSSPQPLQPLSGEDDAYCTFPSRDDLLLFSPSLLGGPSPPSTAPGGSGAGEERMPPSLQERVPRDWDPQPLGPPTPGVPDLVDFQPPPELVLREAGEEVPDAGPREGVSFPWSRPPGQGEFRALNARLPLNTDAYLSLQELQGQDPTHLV
T3 sequence (looked up) 3: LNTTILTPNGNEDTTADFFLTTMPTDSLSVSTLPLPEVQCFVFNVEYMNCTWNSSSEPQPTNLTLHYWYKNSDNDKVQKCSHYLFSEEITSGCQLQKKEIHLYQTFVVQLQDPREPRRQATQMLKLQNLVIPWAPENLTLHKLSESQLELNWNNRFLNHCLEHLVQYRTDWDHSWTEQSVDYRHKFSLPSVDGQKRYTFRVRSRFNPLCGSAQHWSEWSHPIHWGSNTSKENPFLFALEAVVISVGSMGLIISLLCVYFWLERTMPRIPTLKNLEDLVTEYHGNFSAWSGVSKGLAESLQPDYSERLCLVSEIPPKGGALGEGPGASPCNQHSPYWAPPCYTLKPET

T4: IL-2Rβγ on HEK-BLUE IL-2 reporter cells (UniProt P14784 27-551; P31785 23-369)
T4 sequence (looked up) 1: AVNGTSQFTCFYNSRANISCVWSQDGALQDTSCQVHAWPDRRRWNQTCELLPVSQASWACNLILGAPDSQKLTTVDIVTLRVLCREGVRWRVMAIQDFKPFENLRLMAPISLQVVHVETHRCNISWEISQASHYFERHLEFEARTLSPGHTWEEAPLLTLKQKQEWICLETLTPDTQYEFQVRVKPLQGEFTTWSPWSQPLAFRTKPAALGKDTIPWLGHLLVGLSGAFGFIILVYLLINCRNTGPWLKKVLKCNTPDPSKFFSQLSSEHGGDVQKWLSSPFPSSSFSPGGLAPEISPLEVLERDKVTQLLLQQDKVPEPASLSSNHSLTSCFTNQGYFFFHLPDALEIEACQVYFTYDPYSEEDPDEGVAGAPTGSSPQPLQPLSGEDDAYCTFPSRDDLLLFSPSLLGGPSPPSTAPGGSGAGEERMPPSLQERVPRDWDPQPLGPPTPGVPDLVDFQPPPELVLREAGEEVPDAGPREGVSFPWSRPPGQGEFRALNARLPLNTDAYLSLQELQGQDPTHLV
T4 sequence (looked up) 2: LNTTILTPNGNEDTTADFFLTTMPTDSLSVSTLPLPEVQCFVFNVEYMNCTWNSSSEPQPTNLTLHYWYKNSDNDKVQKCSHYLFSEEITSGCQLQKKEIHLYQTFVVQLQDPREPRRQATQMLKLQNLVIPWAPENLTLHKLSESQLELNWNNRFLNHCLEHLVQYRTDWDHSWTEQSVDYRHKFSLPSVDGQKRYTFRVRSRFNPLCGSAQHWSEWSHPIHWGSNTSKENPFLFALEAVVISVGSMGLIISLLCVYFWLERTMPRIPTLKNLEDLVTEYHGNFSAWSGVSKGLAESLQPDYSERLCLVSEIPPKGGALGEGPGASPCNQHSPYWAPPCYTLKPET


Experiments:
[1] = biological target: T1, hCD73; experiment: SPR, Biacore T200; binder captured on CM5 chip by human antibody capture kit, CD73 as analyte
Protocol: (§1) To quantitatively analyze the binding affinities to CD73 and IL-2 receptors of […] and GI-108B1, in which the anti-CD73 antibody that specifically binds to CD73 was linked to the IL-2 variant, and Aldesleukin (trade name: PROLEUKIN®, Novartis), the binding affinities were measured using SPR (surface plasmon resonance). Using a BIACORE™ T200 instrument (Cytiva), the binding affinities of GI-108A1 (AHF10240), GI-108A1 (AHP04167) and GI-108B1 to hCD73, cyCD73, mCD73, hIL-2Rα, hIL-2Rβ, and hIL-2Rβγ were analyzed. Oleclumab (Astrazeneca), produced on order from Ybiologics, Inc., was used as a control.
(§2) Specifically, to analyze the binding affinities to hCD73, cyCD73, and mCD73, each of GI-108A1 (AHF10240), GI-108A1 (AHP04167), GI-108B1, and Oleclumab was diluted in HBS-EP+ buffer (Cytiva, USA) and reversibly immobilized on Sensor Chip CM5 (Cytiva, USA) using a human antibody capture kit (Cytiva, USA). CD73 was diluted in HBS-EP+ buffer and then analyzed for association and dissociation at a flow rate of 30 μL/min for 5 minutes each.

[2] = biological target: T2, mCD73; experiment: as above
Protocol: as §1, §2

[3] = biological target: T5, cyCD73; experiment: as above
T5 construct: Species told only by the prefix 'cy'
Protocol: as §1, §2

[4] = biological target: T3, hIL-2Rαβγ on CTLL-2 cells; experiment: cell-based or functional assay
[5] = biological target: T4, IL-2Rβγ on HEK-BLUE IL-2 reporter cells; experiment: cell-based or functional assay

| Binder | Kd [1] [nM] | Kd [2] [nM] | Kd [3] [nM] | EC50, CTLL-2 cell proliferation (WST-1 absorbance) [4] [nM] | EC50 of CTLL-2 cell proliferation, relative to PROLEUKIN [4] [fold] | EC50, SEAP reporter (JAK-STAT pathway activation) in HEK-BLUE IL-2 reporter cells [5] [pM] | binding result [2] |
| --- | --- | --- | --- | --- | --- | --- | --- |
| GI-108A1 (AHF10240) (Anti-CD73 sdAb-hIgG4 Fc-hIL2v3 fusion protein dimer) (Fc fusion, Homodimer through hinge cysteines) EVQLVESGGGVVQTGGSLRLSCAASGRTFTHLAMGWFRQAPGKEREFVAAISNSGAGTQFADSVKGRFTISRDNAKNTVYLQMNSLKPEDTAVYYCAADWGTRDSPSKLNAVYDYWGRGTQVTVSSGGGGSAESKYGPPCPPCPAPEAAGGPSVFLFPPKPKDQLMISRTPEVTCVVVDVSQEDPEVQFNWYVDGVEVHNAKTKPREEQFNSTYRVVSVLTVLHQDWLNGKEYKCKVSNKGLPSSIEKTISKAKGQPREPQVYTLPPSQEEMTKNQVSLTCLVKGFYPSDIAVEWESNGQPENNYKTTPPVLDSDGSFFLYSRLTVDKSRWQEGNVFSCSVLHEALHNHYTQKSLSLSLGGGGGSGGGGSGGGGSAPTSSSTKKTQLQLEHLLLDLQMILNGINNYKNPKLTAMLTAKFYMPKKATELKHLQCLERELKPLEEVLNLAQSKNFHLRPRDLISNINVIVLELKGSETTFMCEYADETATIVEFLNRWITFCQSIISTLT | 0.0502 | 2.62 | 0.0841 | 2.02 | 20 | 2.63 |  |
| GI-108A1 (AHP04167) (Anti-CD73 sdAb-hIgG4 Fc-hIL2v3 fusion protein dimer) (Fc fusion, Homodimer through hinge cysteines) EVQLVESGGGLVQAGGSLRLSCVVSGRTFSNYHMGWFRQAPGKEREFVAVIGRSGGPTYYADSVKGRFTISRDNAKNTVYLQMNSLKPEDTAVYYCAGDWRNSDSPSKLKPVYDYWGQGTQVTVSSGGGGSAESKYGPPCPPCPAPEAAGGPSVFLFPPKPKDQLMISRTPEVTCVVVDVSQEDPEVQFNWYVDGVEVHNAKTKPREEQFNSTYRVVSVLTVLHQDWLNGKEYKCKVSNKGLPSSIEKTISKAKGQPREPQVYTLPPSQEEMTKNQVSLTCLVKGFYPSDIAVEWESNGQPENNYKTTPPVLDSDGSFFLYSRLTVDKSRWQEGNVFSCSVLHEALHNHYTQKSLSLSLGGGGGSGGGGSGGGGSAPTSSSTKKTQLQLEHLLLDLQMILNGINNYKNPKLTAMLTAKFYMPKKATELKHLQCLERELKPLEEVLNLAQSKNFHLRPRDLISNINVIVLELKGSETTFMCEYADETATIVEFLNRWITFCQSIISTLT | 0.088 | 3.45 | 0.0708 | 3.93 | 20 | 3.94 |  |
| GI-108B1 (Anti-CD73 Ab-hIgG4 Fc-hIL2v3 fusion protein dimer) (antibody, IgG4 anti-CD73 antibody with the IL-2 variant fused to the C-terminus of each heavy chain; expressed in CHO cells, purified as a dimer) heavy: QVQLVQSGAEVKKPGSSVKVSCKFSGGSFTSYSFSWVRQAPGQGLEWMGRIIPVLTTTDYAQKFRDRVTITADESTSTAYMELSGLRSEDTAVYYCASGLKKNWYFDLWGRGALITVSSASTKGPSVFPLAPCSRSTSESTAALGCLVKDYFPEPVTVSWNSGALTSGVHTFPAVLQSSGLYSLSSVVTVPSSSLGTKTYTCNVDHKPSNTKVDKRVESKYGPPCPPCPAPEAAGGPSVFLFPPKPKDQLMISRTPEVTCVVVDVSQEDPEVQFNWYVDGVEVHNAKTKPREEQFNSTYRVVSVLTVLHQDWLNGKEYKCKVSNKGLPSSIEKTISKAKGQPREPQVYTLPPSQEEMTKNQVSLTCLVKGFYPSDIAVEWESNGQPENNYKTTPPVLDSDGSFFLYSRLTVDKSRWQEGNVFSCSVLHEALHNHYTQKSLSLSLGGGGGSGGGGSAPTSSSTKKTQLQLEHLLLDLQMILNGINNYKNPKLTAMLTAKFYMPKKATELKHLQCLERELKPLEEVLNLAQSKNFHLRPRDLISNINVIVLELKGSETTFMCEYADETATIVEFLNRWITFCQSIISTLT light: not shown | 0.0894 |  | 0.113 | 1.7 | 20 | 1.28 | no binding |
